Data taken from patent EP4671273A1 (Anaveon AG, dated 2025).

Tests used:
[1] = biological target: T1, cynomolgus PD-1 (#PD1-C52H5, AcroBiosystems) (cynomolgus monkey, UniProt B0LAJ3 25-170); assay: SPR, PD-1 on captured IgG1
T1 construct: bought; also called cynomolgus monkey PD-1; not shown: the vendor's tag on the recombinant protein (AcroBiosystems #PD1-C52H5)

[2] = biological target: T2, human PD-1 (#PD1-H82E4, AcroBiosystems) (human, UniProt Q15116 25-167); assay: SPR, PD-1 on captured IgG1
T2 construct: bought
T2 sequence (Q15116 25-167 limits assumed): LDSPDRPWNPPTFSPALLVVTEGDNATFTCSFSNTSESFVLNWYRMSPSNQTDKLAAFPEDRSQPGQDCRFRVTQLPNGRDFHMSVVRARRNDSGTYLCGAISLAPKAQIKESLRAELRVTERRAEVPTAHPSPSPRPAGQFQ

T1 sequence (B0LAJ3 entry or part of it limits assumed, form in doubt): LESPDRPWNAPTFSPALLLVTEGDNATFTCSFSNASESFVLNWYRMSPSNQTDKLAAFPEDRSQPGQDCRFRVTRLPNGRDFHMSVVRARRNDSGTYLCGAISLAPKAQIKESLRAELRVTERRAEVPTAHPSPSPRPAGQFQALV

| Kd [1] [nM] | koff [1] [s⁻¹] | kon [1] [M⁻¹ s⁻¹] | Kd [2] [nM] | koff [2] [s⁻¹] | kon [2] [M⁻¹ s⁻¹] | Binder |
| --- | --- | --- | --- | --- | --- | --- |
| 0.306 | 0.000153 | 499000 | 0.522 | 0.000174 | 333000 | XVT458-z2-m6 (antibody, human IgG1, V domains shown, human IgG1; also called anti-PD-1 antibody clone XVT458-z2-m6) VH: VQLVQSGAEVKKPGASVKVSCKASGYTFTNFYIHWVRQAPGQGLEWMGSIYPNYGITAYNQKFKDRVTMTVDTSTSTAYMELRSLRSDDTAVYYCARGYSYAMDYWGQGTTVTVSS VL: DIQMTQSPSSVSASVGDRVTITCSASQGISGDLNWYQQKPGKAPKLLIYHTSQLHSDVPSRFSGSGSGTDFTLTISSLQPEDFATYYCQGYSKDLLTFGGGTKLEIK |
| 0.541 | 0.000297 | 549000 | 0.955 | 0.000406 | 426000 | NRT742 (antibody, human IgG1, V domains shown, human IgG1) VH: VQLVQSGAEVKKPGASVKVSCKASGYTFTNFYIHWVRQAPGQGLEWMGSIYPNYGITAYNQKFKDRVTMTVDTSTSTAYMELRSLRSDDTAVYYCARGYSYAMDYWGQGTTVTVSS VL: DIQMTQSPSSVSASVGDRVTITCSASQGISGDLNWYQQKPGKAPKLLIYHASQLHSDVPSRFSGSGSGTDFTLTISSLQPEDFATYYCQGYSKDLLTFGGGTKLEIK |
| 0.362 | 0.000179 | 495000 | 0.506 | 0.000166 | 329000 | KOB135 (antibody, human IgG1, V domains shown, human IgG1) VH: VQLVQSGAEVKKPGASVKVSCKASGYTFTNFYIHWVRQAPGQGLEWMGSIYPNYGITAYNQKFKDRVTMTVDTSTSTAYMELRSLRSDDTAVYYCARGYSYAMDYWGQGTTVTVSS VL: DIQMTQSPSSVSASVGDRVTITCSASQGISGDLNWYQQKPGKAPKLLIYHTSQQHSDVPSRFSGSGSGTDFTLTISSLQPEDFATYYCQGYSKDLLTFGGGTKLEIK |
| 0.502 | 0.000243 | 483000 | 0.801 | 0.00028 | 349000 | ZTD928 (antibody, human IgG1, V domains shown, human IgG1) VH: VQLVQSGAEVKKPGASVKVSCKASGYTFTNFYIHWVRQAPGQGLEWMGSIYPNYGITAYNQKFKDRVTMTVDTSTSTAYMELRSLRSDDTAVYYCARGYSYAMDYWGQGTTVTVSS VL: DIQMTQSPSSVSASVGDRVTITCSASQGISGDLNWYQQKPGKAPKLLIYHTSQLHSDVPSRFSGSGSGTDFTLTISSLQPEDFATYYCQGYSKDTLTFGGGTKLEIK |
| 0.246 | 0.000124 | 504000 | 0.429 | 0.000144 | 336000 | JPK663 (antibody, human IgG1, V domains shown, human IgG1) VH: VQLVQSGAEVKKPGASVKVSCKASGYTFTNFYIHWVRQAPGQGLEWMGSIYPNYGITAYNQKFKDRVTMTVDTSTSTAYMELRSLRSDDTAVYYCARGYSYAMDYWGQGTTVTVSS VL: DIQMTQSPSSVSASVGDRVTATCSASQGISGDLNWYQQKPGKAPKLLIYHTSQLHSDVPSRFSGSGSGTDFTLTISSLQPEDFATYYCQGYSKDLLTFGGGTKLEIK |
| 0.627 | 0.000345 | 551000 | 0.955 | 0.00039 | 409000 | OKM590 (antibody, human IgG1, V domains shown, human IgG1) VH: VQLVQSGAEVKKPGASVKVSCKASGYTFTNFYIHWVRQAPGQGLEWMGSIYPNYGITAYNQKFKDRVTMTVDTSTSTAYMELRSLRSDDTAVYYCARGYSYAMDVWGQGTTVTVSS VL: DIQMTQSPSSVSASVGDRVTITCSASQGISGDLNWYQQKPGKAPKLLIYHTSQLHSDVPSRFSGSGSGTDFTLTISSLQPEDFATYYCQGYSKDLLTFGGGTKLEIK |
| 0.331 | 0.00016 | 485000 | 0.515 | 0.000202 | 393000 | WAZ460 (antibody, human IgG1, V domains shown, human IgG1) VH: VQLVQSGAEVKKPGASVKVSCKASGYTFTNFYIHWVRQAPGQGLEWMGSIYPNYGITAYNQKFKDRVTMTVDTSTSTAYMELRSLRSDDTAVYYCARGYSYAMDYWGQGTTVTVSS VL: DIQMTQSPSSVSASVGDRVTITCRASQGISGDLNWYQQKPGKAPKLLIYHTSQLHSDVPSRFSGSGSGTDFTLTISSLQPEDFATYYCQGYSKDLLTFGGGTKLEIK |
| 0.327 | 0.00016 | 489000 | 0.521 | 0.000189 | 363000 | PEV057 (antibody, human IgG1, V domains shown, human IgG1) VH: VQLVQSGAEVKKPGASVKVSCKASGYTFTNFYIHWVRQAPGQGLEWMGSIYPNYGITAYNQKFKDRVTMTVDTSTSTAYMELRSLRSDDTATYYCARGYSYAMDYWGQGTTVTVSS VL: DIQMTQSPSSVSASVGDRVTITCSASQGISGDLNWYQQKPGKAPKLLIYHTSQLHSDVPSRFSGSGSGTDFTLTISSLQPEDFATYYCQGYSKDLLTFGGGTKLEIK |
